B1: heparin-binding EGF-like growth factor (protein)
chain: DLQEADLDLLRVTLSSKPQALATPNKEEHGKRKKKGKGLGKKRDPCLRKYKDFCIHGECKYVKELRAPSCICHPGYHGERCHGLSL
B2: EGF: EGFR-ligand cited as stimulating ADAM17 (protein, UniProt P01133 23-1207, looked up)
Pro-epidermal growth factor: PQHWSCPEGTLAGNGNSTCVGPAPFLIFSHGNSIFRIDTEGTNYEQLVVDAGVSVIMDFHYNEKRIYWVDLERQLLQRVFLNGSRQERVCNIEKNVSGMAINWINEEVIWSNQQEGIITVTDMKGNNSHILLSALKYPANVAVDPVERFIFWSSEVAGSLYRADLDGVGVKALLETSEKITAVSLDVLDKRLFWIQYNREGSNSLICSCDYDGGSVHISKHPTQHNLFAMSLFGDRIFYSTWKMKTIWIANKHTGKDMVRINLHSSFVPLGELKVVHPLAQPKAEDDTWEPEQKLCKLRKGNCSSTVCGQDLQSHLCMCAEGYALSRDRKYCEDVNECAFWNHGCTLGCKNTPGSYYCTCPVGFVLLPDGKRCHQLVSCPRNVSECSHDCVLTSEGPLCFCPEGSVLERDGKTCSGCSSPDNGGCSQLCVPLSPVSWECDCFPGYDLQLDEKSCAASGPQPFLLFANSQDIRHMHFDGTDYGTLLSQQMGMVYALDHDPVENKIYFAHTALKWIERANMDGSQRERLIEEGVDVPEGLAVDWIGRRFYWTDRGKSLIGRSDLNGKRSKIITKENISQPRGIAVHPMAKRLFWTDTGINPRIESSSLQGLGRLVIASSDLIWPSGITIDFLTDKLYWCDAKQSVIEMANLDGSKRRRLTQNDVGHPFAVAVFEDYVWFSDWAMPSVMRVNKRTGKDRVRLQGSMLKPSSLVVVHPLAKPGADPCLYQNGGCEHICKKRLGTAWCSCREGFMKASDGKTCLALDGHQLLAGGEVDLKNQVTPLDILSKTRVSEDNITESQHMLVAEIMVSDQDDCAPVGCSMYARCISEGEDATCQCLKGFAGDGKLCSDIDECEMGVPVCPPASSKCINTEGGYVCRCSEGYQGDGIHCLDIDECQLGEHSCGENASCTNTEGGYTCMCAGRLSEPGLICPDSTPPPHLREDDHHYSVRNSDSECPLSHDGYCLHDGVCMYIEALDKYACNCVVGYIGERCQYRDLKWWELRHAGHGQQQKVIVVAVCVVVLVMLLLLSLWGAHYYRTQKLLSKNPKNPYEESSRDVRSRRPADTEDGMSSCPQPWFVVIKEHQDLKNGGQPVAGEDGQAADGSMQPTSWRQEPQLCGMGTEQGCWIPVSSDKGSCPQVMERSFHMPSYGTQTLEGGVEKPHSLLSANPLWQQRALDPPHQMELTQ
modifications: Pro-epidermal growth factor
notes: EGFR-ligand cited as stimulating ADAM17

Tests used:
[1] = tested on: LC-Ad17 mice; assay: UVR-induced keratinocyte apoptosis and monocyte numbers in ears of LC-Ad17 mice; type: in vivo, mouse; settings: applied on ears prior to UVR, 24 hours
Procedure: FIGS. 5A-5H. LC-derived ADAM17 limits UVR-induced keratinocyte apoptosis and skin injury. (5A-5D) Graphs showing WT and LC-Ad17 mice were treated with UVR and analyzed at indicated time points. (5A) Graph showing activated caspase-3+ keratinocytes (n=3-5 mice). […] (5C) Graph showing epidermal thickness (n=3-4 mice). (5D) Graph showing quantification of epidermal permeability (n=3-5 mice). (5E,5F) Vehicle or HB-EGF was applied on the ears prior to UVR exposure (n=3-4 mice). (5E) Graph showing activated caspase-3+ keratinocytes. (5F) Graphs showing absolute (left) and normalized (right) monocyte numbers. (5G,5H) Effect of LC Adam17 deletion or ADAM17 blockade on keratinocyte survival in vitro. Murine keratinocytes with LCs from indicated mice (5G) and human keratinocytes with control-IgG or anti-ADAM17-treated LCs (5H) were exposed to UVR and examined at 24 hours (n=3 mice or 4 human donors). Data are from 3 (5E-5G), 4 (5A), 2 (5H), 5 (5B), and 1 (5C,5D) independent experiments. Bars represent means (5A,5B,5D-H) or medians (5C).

[2] = tested on: MRL-Faslpr mice; assay: Multi-day UVR lesion development in MRL-Faslpr SLE model mice with topical treatment; type: in vivo, mouse
Procedure: FIGS. 8A-8C. Topical EGFR ligand reduces photosensitivity. (8A) Experimental scheme for (B-C) (n=4 mice). MRL-Faslpr mice ears and back skin were topically treated with HB-EGF for 2 days before and on the first day of UVR exposure and examined 24 hours after the final exposure. Ears were treated with Control plus vehicle, UVR plus vehicle, UVR+ HB-EGF and MRL-MpJ UVR+ vehicle. The MRL-MpJ ear represents a non-SLE control. (8C) Graph of ear histopathology scores. (8C) Graph of absolute monocyte numbers. Data are from 3 independent experiments. Bars represent means.
FIGS. 18A-18B. EGFR ligand application reduces the severity of UVR-induced skin lesions and lymph node B cell responses in SLE model mice. Mice were treated with HB-EGF (n=4 mice). Lesional areas are seen in magnified images of back lesions (not shown). Neutrophil-dominant infiltrate and ulceration are seen in H&E images of ear skin (not shown). (18A, 18B) Germinal center B cell (18A) and plasma cell (18B) numbers in skin draining lymph nodes (auricular and inguinal) normalized to mice treated with UVR+ vehicle. Each symbol represents either inguinal or auricular lymph nodes from multiple mice. Data from 2 independent experiments. Bars represent means.
The remaining hair on the back skin of the mice was removed using Nair and photographs were taken. The total back area and lesional area (skin affected by erythema, scaliness, crustiness, or epidermal erosion) was measured by a blinded observer using ImageJ software and skin lesions were quantified as percent of back area.
Skin histopathology scoring: A blinded expert dermatopathologist scored H&E stained sections based on dermal inflammation (0-3).

[3] = tested on: Langerin-DTA mice; assay: UVR-induced keratinocyte apoptosis and monocyte accumulation in ears of Langerin-DTA mice; settings: 2 ug per ear 15 minutes prior to UVR, 24 hours after UVR
Procedure: (3C,3D) Mouse ears were treated with vehicle or HB-EGF prior to UVR and examined 24 hours after UVR (n=3-4 mice). (3C) Graph of activated caspase-3+ keratinocytes. (3D) Graph of absolute (left) and normalized (right) monocyte numbers. […] Bars represent means. Error bars depict standard deviations.
For indicated 24 hour experiments, HB-EGF (2 ug; R&D Systems) dissolved in dimethyl sulfoxide (DMSO) was applied to each ear 15 minutes prior to UVR exposure.
For immunofluorescence staining of murine skin, frozen unfixed mouse skin was sectioned, fixed with cold acetone for 10 minutes, and stained as indicated (15). Epidermal activated caspase-3+ cells per high powered field (40× magnification) were quantified by a blinded observer using ImageJ software (NIH) and classified as activated caspase-3+ keratinocytes (Langerin− and CD3−), LCs (Langerin+), or T cells (CD3+).

[4] = tested on: ADAM17; settings: mouse embryonic fibroblasts; cited from earlier work
[5] = MRL-Faslpr mice, topical, multi-day UVR
[6] = MRL/lpr lupus model, topical application

Molecule | UVR-induced skin inflammation (monocyte numbers) [1] | increased UVR-induced keratinocyte apoptosis [1] | severity of UVR-induced skin lesions ([2]; MRL-Faslpr mice, topical on ears and back for three consecutive days, 6 days UVR) | germinal center B cells in skin-draining lymph nodes [2, 5] | plasma cells in skin-draining lymph nodes [2, 5] | monocyte accumulation ([2]; MRL-Faslpr mice, topical, multi-day UVR, 24 hours after final exposure) | photosensitivity [2, 6] | skin-draining lymph node (B cell) responses [2, 6] | skin-draining lymph node (B cell) responses ([2]; MRL/lpr lupus model, topical application, listed as Hb-EGF) | UVR-induced apoptotic keratinocyte accumulation [3] | UVR-induced monocyte accumulation [3] | ADAM17 activation [4]
B1 | dampened | dampened | reduced the severity | reduced | reduced | reduced | reduces | reduction | reduces | reduced | reduced | 
B2 |  |  |  |  |  |  |  |  |  |  |  | activated

Source: patent US20220273679A1, “METHODS AND COMPOSITIONS FOR TREATING AND PREVENTING DAMAGE TO SKIN” (New York Society for the Relief of the Ruptured and …, priority 2019, published 2022)
